Literature values in paper PMC11187271.

Target: Galectin-1 (Homo sapiens) (UniProt P09382)
UniProt P09382, sequence (P09382 2-135): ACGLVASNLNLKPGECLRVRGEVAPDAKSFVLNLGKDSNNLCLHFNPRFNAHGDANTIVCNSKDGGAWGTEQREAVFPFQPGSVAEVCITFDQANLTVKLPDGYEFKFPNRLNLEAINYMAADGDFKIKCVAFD

## Thymosin alpha-1 (from UniProt P06454)
  Kd: 46 µM
